The record followed here is patent publication US20250049953A1, “TREATMENT AND METHOD FOR INHIBITING LATE NA CURRENT” (THE TRUSTEES OF COLUMBIA UNIVERSITY IN THE CITY OF NEW YORK, priority 2022, published 2025).

The target of the assay is T1, NaV1.5 S[1885]* (Homo sapiens, UniProt Q14524).
T1 construct: expressed in transfected cells; host or cells: HEK293 (ATCC CRL1573)
Briefly: Multichannel recordings of late Na current, NaV1.5 S[1885]* truncation. It is filed as cell-based. The note with it: co-expression. From the text: The human NaV1.5 channel corresponds to clone M77235.1 (GenBank) and is subcloned into pGW 1 vector with HindIII and SaII. To facilitate construction of channelopathic mutations in the channel carboxy-terminus, we introduced silent mutations into NaV1.5 to introduce an NruI cutting site near the channel carboxy-terminus (5329-gtggccacg-5337 into 5329-gtCgcGacg-5337). Subsequently, we used overlap-extension PCR and ligated the PCR product into NaV1.5/pGW1 using NruI and XbaI restriction sites (mutations: E1784K, S1904L, IQ/AA, and Q1909R). For generating the ΔKPQ and IFM/IQM mutations, we used overlap-extension PCR and ligated in NaV1.5/pGW1 following restriction digest using KpnI and XbaI site. For generation of NaV1.5 truncations, we PCR amplified relevant segments using a forward primer upstream of the KpnI site and a reverse primer that truncated at the appropriate location (Δ1810 and Δ1885) and included an XbaI site and ligated into NaV1.5/pW1 vector. For LILA/WICW mutations, we used overlap extension and used restriction site AgeI and NheI for subsequent ligation. All segments subjected to PCR amplification were verified by sequencing. For generating human FHF2 splice-variants, we synthesized gene fragments and ligated into pcDNA3 using BamHI/EcoRI restriction sites. Human FHF1A and FHF1B were subcloned into ECFP-N3 vector, FHF2 splice variants and FHF3 were subcloned into pcDNA3. […]

T1 sequence (Q14524 1-1884 limits assumed): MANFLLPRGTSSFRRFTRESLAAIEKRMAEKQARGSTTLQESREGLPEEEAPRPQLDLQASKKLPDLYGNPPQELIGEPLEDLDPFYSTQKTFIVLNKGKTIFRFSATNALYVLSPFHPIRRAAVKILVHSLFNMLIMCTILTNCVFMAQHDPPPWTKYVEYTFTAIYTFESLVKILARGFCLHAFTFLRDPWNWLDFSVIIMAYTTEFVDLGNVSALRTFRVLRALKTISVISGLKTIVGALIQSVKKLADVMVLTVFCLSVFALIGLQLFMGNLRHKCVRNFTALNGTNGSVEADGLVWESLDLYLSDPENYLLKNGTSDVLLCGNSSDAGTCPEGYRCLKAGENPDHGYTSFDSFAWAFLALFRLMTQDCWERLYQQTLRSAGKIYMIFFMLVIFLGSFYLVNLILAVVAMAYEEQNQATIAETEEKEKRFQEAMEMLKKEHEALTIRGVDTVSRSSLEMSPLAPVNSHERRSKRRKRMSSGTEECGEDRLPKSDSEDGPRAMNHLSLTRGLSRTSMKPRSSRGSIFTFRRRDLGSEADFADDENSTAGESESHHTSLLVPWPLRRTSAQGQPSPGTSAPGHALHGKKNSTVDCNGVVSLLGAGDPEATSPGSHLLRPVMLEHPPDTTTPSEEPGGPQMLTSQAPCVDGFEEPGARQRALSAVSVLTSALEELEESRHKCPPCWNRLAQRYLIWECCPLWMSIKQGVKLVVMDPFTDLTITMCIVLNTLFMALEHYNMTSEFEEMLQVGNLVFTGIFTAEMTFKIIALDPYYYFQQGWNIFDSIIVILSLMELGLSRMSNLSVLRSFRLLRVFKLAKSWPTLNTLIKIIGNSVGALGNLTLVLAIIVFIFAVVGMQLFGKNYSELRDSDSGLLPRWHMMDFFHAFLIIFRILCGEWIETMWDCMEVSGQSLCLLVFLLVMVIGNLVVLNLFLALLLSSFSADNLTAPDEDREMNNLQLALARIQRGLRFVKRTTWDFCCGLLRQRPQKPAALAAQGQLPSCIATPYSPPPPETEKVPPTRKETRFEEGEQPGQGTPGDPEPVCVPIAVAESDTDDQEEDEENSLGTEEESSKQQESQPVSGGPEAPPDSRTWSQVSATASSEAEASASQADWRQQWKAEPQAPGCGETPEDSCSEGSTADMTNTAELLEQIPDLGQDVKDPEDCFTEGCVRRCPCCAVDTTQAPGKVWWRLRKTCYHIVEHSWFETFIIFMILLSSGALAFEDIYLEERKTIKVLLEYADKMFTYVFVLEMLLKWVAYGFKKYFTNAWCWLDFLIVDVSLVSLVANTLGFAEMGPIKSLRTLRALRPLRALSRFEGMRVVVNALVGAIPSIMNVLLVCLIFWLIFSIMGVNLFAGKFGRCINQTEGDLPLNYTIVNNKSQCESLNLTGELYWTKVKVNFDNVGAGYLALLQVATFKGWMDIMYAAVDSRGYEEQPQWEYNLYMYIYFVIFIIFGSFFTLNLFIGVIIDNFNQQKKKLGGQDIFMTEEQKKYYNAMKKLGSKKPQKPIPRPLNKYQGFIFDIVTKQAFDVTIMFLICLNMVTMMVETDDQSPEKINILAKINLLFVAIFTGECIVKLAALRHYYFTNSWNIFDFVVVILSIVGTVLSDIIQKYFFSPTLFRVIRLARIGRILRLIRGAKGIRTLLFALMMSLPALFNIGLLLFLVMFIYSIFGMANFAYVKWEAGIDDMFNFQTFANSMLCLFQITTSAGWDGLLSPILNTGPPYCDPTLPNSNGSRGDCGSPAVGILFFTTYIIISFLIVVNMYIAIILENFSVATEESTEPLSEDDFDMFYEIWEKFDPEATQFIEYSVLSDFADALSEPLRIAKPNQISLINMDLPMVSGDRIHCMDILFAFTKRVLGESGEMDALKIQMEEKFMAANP

For the substance “FixR: minimal 39-amino-acid FHF1A amino-terminal effector domain, MAAAIASSLIRQKRQARESNSDRVSASKRRSSPSKDGRS (SEQ ID NO: 4), expressed as peptide”, the “change in INa,L” value is given as “strongly inhibits”.
